Data set [1] addresses T1, CalR3 (Streptomyces chartreusis NRRL 3882) (UniProt F8QZR9).
T1 sequence: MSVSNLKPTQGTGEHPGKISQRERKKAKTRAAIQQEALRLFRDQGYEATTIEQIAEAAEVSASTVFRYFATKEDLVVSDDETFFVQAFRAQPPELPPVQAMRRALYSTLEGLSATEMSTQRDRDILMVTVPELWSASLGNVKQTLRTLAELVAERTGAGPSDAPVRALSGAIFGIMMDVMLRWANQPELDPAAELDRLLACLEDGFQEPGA
The experiment in a line: EMSA. To be noted: EMSA: 20 mM Tris-Cl pH 8.0, 100 mM KCl, 10 mM DTT, 37 C, 30 min, 20 ul, footprinting: 25 C, 500 ng probe in 40 ul.

The target in data set [2] is T2, CalR3 (Streptomyces chartreusis NRRL 3882, UniProt F8QZR9 1-211).
T2 sequence: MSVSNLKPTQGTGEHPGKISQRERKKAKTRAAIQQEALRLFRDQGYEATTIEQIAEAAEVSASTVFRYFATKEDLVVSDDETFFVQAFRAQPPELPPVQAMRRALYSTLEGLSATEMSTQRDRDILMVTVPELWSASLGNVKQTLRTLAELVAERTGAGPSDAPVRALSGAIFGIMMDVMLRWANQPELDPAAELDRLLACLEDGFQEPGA
Nature of the data set: EMSA; 1.5 uM probe, 0.8 uM CalR3; EMSA: 20 mM Tris-Cl pH 8.0, 100 mM KCl, 10 mM DTT, 37 C, 30 min, 20 ul; footprinting: 25 C, 30 min, 500 ng probe in 40 ul. To be noted: protein: recombinant; tags: N-terminal His6 (pET28a); chain copies: 2. On the technique in general: Mobility shift assays separate free from complexed probe on a gel.

Data set [3] has as its target T2, CalR3. The experiment in a line: EMSA; 1.5 uM probe, 0.8 uM CalR3; two shifted bands; EMSA: 20 mM Tris-Cl pH 8.0, 100 mM KCl, 10 mM DTT, 37 C, 30 min, 20 ul; footprinting: 25 C, 30 min, 500 ng probe in 40 ul. The conditions noted are these: protein: recombinant; tags: N-terminal His6 (pET28a); chain copies: 2.

On to “CCAGCCGGTAAAGAGCGAGCCTCATGACAGGCAACCTTCTTTTAGGAGTCGACTTTCAATTGATAGCCTACTAGCACTTTGAGGAGATGAGAACTCCTCCTCGCTGCCACC (double strand) [T-R3L]”, for which the binding result in data set [1] is recorded as “binds”.
Same read-out and setting: as for “TCCCTTGCGTCGGTTTCAGGTTGGACACGCTCATGCTCCACATTCTCCAGGCTCTCCGGCGGCCGGCCGGTCACGGCTGTGCCGCGCCCGGCCGCGTGCGGCGGTGGCAGCGAGGAGGAG (double strand) [T-R3R]”, the entry is “no binding”; as for “TGACAGGCAACCTTCTTTTAGGAGTCGACTTTCAATTGATAGCCTACTAGCACTTTGAGGAGATGAGAACTCCTCCTCGCTGCCACCGCCGCACGCGGCCGGGCGCGGCACAGCCGTGACCGGCCGGCCGCCGGAGAGCCTGGAGAATGTGGAGCA (double strand) [T-R3 (calT-calR3 intergenic)]”, “binds”.

B1: m1 (site II palindrome mutated) (dsDNA)
DNA 1: AAGAGCGAGCCTCATGACAGGCAACCTTCTTTTAGGAGTCGAGAATTCTAGATATCCCTACTAGCACTTTGAGGAGATGA
DNA 2: TCATCTCCTCAAAGTGCTAGTAGGGATATCTAGAATTCTCGACTCCTAAAAGAAGGTTGCCTGTCATGAGGCTCGCTCTT
As for B1, in the data set with CalR3 [2], the binding result is given as “no binding”.

B2: m1&2 (sites I and II mutated) (dsDNA)
DNA 1: AAGAGCGAGCCTCAACTGAGGCAACCTTCTTTTAGGAGTCGAGAATTCTAGATATCCCTACTAGCACTTTGAGGAGATGA
DNA 2: TCATCTCCTCAAAGTGCTAGTAGGGATATCTAGAATTCTCGACTCCTAAAAGAAGGTTGCCTCAGTTGAGGCTCGCTCTT
B2: in the data set with CalR3 [2], the binding result is “no binding”.

B3: m0 (dsDNA)
DNA 1: AAGAGCGAGCCTCATGACAGGCAACCTTCTTTTAGGAGTCGACTTTCAATTGATAGCCTACTAGCACTTTGAGGAGATGA
DNA 2: TCATCTCCTCAAAGTGCTAGTAGGCTATCAATTGAAAGTCGACTCCTAAAAGAAGGTTGCCTGTCATGAGGCTCGCTCTT
As to B3, the binding result with CalR3 [3] was “binds”.

The record behind these values is publication PMC5712553, “A Novel TetR Family Transcriptional Regulator, CalR3, Negatively Controls Calcimycin Biosynthesis in Streptomyces chartreusis NRRL 3882”.
